According to the RNAGym collection of RNA variant scans (doi:10.1073/pnas.2313332121):

B1: TPR t1 (parent)
chain: GACCAAUCUGCCCUCAGAGCUCGAGAACAUCUUCGGAUGCAGAGGAGGCAGGCUUCGGUGGCGCGAUAGCGCCAACGUCCUCAACCUCCAAUGCAUCCCACCACAUGAUGAUGCCUGAAGAGCCUUGGUUUUUUG

Variants of: B1
Assay: polymerase ribozyme fitness, log enrichment relative to wild type (log ratio); higher = more active; in vitro selection for triplet polymerase activity
Procedure, shortened: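 Input and output libraries were sequenced on Illumina after a single in vitro selection round, run in triplicate on PCR-built, transcribed mutant libraries of each subunit of a heterodimeric triplet polymerase ribozyme. Selection annealed libraries to a biotinylated primer, the partner subunit and triplets, incubated them frozen at −7 °C, then gel-excised extended constructs for streptavidin-bead capture and RT-PCR. Genotypes with ≥10 input reads and ≥1 read per output were kept. Fitness is the logarithm, taken in base 2, of genotype enrichment divided by wild-type enrichment, using inverse-variance-weighted replicate averages.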

Variant	polymerase ribozyme fitness (log ratio)
A50U C62U A83U U133A	-1.52
U14C G127A U129A	-3.26
C3A G10U	-1.63
U9G U109C	-3.57
A5C C49U C53A C73U	-0.789
C22U A90G	-4.43
A95U C102U C104A G110C G128U	-5.5
A27U G61C C97U U131A	-4.99
G61C C79G U92A G117U	-6.69
U54G U87C U92G	-2.64
A2C G61C A121C	-1.16
C20U C40U A43U G93U	-4.35
C56G C124G	0.656
A74U C89G U112A	-2.2
C4U U9C C82U	0.225
C15A C123U	-1.1
G10A G42A	-1.32
U21G C22A A74G	-4.4
A2G G45A G63U U112A	-0.348
C8A A27C C28U	-4.62
U81G G113C	-4.85
G58C C62A G69U A119U	-0.99
C11A A37G U59A U131C	-1.86
C8U G19C G44U C56A C89G	-2.64

Variant	polymerase ribozyme fitness (log ratio)
C56A U125G	-1.39
C62U C70G	-3.65
A6U A29G G61U C89A A121G	-0.882
C12A C15A G47U C62U U78C A83U G120C U133A	-2.07
C11U A84C U92G	-3.8
C56U C86U	-0.265
C82U A83G C101U	-0.587
C56U C70U U132C	-0.908
C15A U132C	-1.46
U7C A46G A108G C123A	-1.51
C11G A27U G36A G58A	-3.1
A2U A27U A74C U87A U112A G127U	-2.94
G51U C62U	-3.78
A2U C8G G36U G45A C102U G120A G127C	-4.41
C13U U21G	0.0383
A2U G77A	-2.8
U7A G39U G69U	0.59
C4G U92C	-3.05
C64U G71U	-2.96
U14G C40G G69A	-3.52
C114A G117C	-4.77
U9G C70A C85U A90G C102A	-4.92
G17U G44A C62U A83U G117A	-5.24
G113U U131C	-3.4

Variant	polymerase ribozyme fitness (log ratio)
C28G G47C	-3.69
C13A G93U C98U	-4.03
G19A U112G	-3.87
G45A U130C	-1.02
C4G A29G U54C	-2.97
A18U U129A	-4.3
U7G U133A	0.128
G42U G69U C115A	-1.45
A5U G52C C62A U112A	-0.939
G10U U59C C85U	-0.716
C53A G57A G93C	-0.961
A27U G61A U87G	-2.42
C80U C114U	-2.33
G10A G45A	-1.2
C3U A100C G135C	-2.44
A2C U130A	-2.07
U9A C40G	0.644
C62U G113U	-3.01
G57A G71U	-0.925
C4G C13A A24C G63A G71C G113U G128C	-6.72
A6U G61U G117A	-0.538
G45A G135U	-1.9
A5U C72U	-0.719
C13U G39C G58A A118U G120U	0.174

Variant	polymerase ribozyme fitness (log ratio)
U9G A41U A95C	-2.53
C8U G39A	0.0776
G110U A118G	-1.01
A50U C62U U106A	-1.01
G61C U132A	-1.81
A6U G51C A74U G113A C123G	-4.2
C22G C104A	-5.33
U9A G65C A111U C123U G128A U133C	-4.71
G61C G77A	-4.61
G47U C56G G69C C76A A119G U129C	-7.91
A91C C104A	-3.58
U92A A121U	-0.332
C86U A95C	-1.49
C13U G63A	-0.373
A16G C62A C97U	-3.6
C72A G77A C89U U106C	-1.11
C4U C8A C123G	0.914
C70U U87C C89A G120C	-2.9
C12U G42U C49G U96C	-2.37
A91U U106G	-4.85
G52A C53A	-0.436
A50G A84C C114G	-2.83
G10A C11U C13U C62A C79A U106C G122A	-3.29
C4A A43G G47C C64U C86G U125G G127C	-2.57

Variant	polymerase ribozyme fitness (log ratio)
C56U G61U C104U U112G G117U C124U	-5.56
C11G G45A G52U C101A U106A A121U	0.469
U9A C13U C62A C79G C94A U132A	-4.57
A26U G48C C86G	-3.65
A37C C56U	0.093
C72U A103U	-5.16
A2C C11U G61A G120A	-0.476
C13U G42U A90U A95U	-1.89
U32C G77U U126G	-2.53
G42C G47U G52C C114A A118G	-6.7
A5G C8U G61U C94U	0.251
C8U C11G C70U G93A	0.0777
C3G C8A A37U A111G G120A U125C	-3.58
G48U A50U C89G U106A U116C C124U	-3.34
U96A G117U	-3.63
C8G U14G G35C C64U C94U C124G	-3.33
G60C C94G U116C C123U	-3.28
U9C U116C U129A	-0.962
A37U U54A G61C C102A	-4.66
C80U A83G	-1.23
G61U U106G	-0.849
C4U A29C G48U C56G A119G	-3.08
C70G C123G U131C	0.0447
A41G G57C	-0.0815

Variant	polymerase ribozyme fitness (log ratio)
G25U C64A C98G A111U	-8.01
C11G U21A C53G C114A	0.189
A18U A83U C101A	-3.63
U7C C13U A105U	-1.79
A5U G71U C72U C101G G117U	-5.12
C56U G60A	-3.37
C73A G135U	-1.25
U38A C102U A111G U112A U126G U129C	-6.23
U14A G63C A83U C86A U112A U131A	-2.09
U14C C49G A84C U106G U133G	-5.32
A6U A74C	0.0283
A90C	-1.08
A6U G10A C15U A46C C53G G61U C79A C80U C115G A119G	-4.07
C13U A105C	-1.68
G36A G61U A103C A118U	-6.19
U92A C94U	-3.3
C4U U7A G93C C102A	-3.52
G69A A111U U130A	-6.09
C88A A111C	0.245
G45A C73U	-1.34
A6G G36C C72U C80A U116A C123A	-5.42
A29C C49U	-2.86
G10A C11U C89A	-2.04
C11U G48C	-1.61

Variant	polymerase ribozyme fitness (log ratio)
U81C C82G G113C C115G A118G	-7.41
U9G G69U G107U	-2.73
C79U U106A U116G	-2.6
C34U G60A C124A	-3.3
A43C C56U C79G	-5.29
C72U A84C C124U	1.07
A6G G42U C73A C85U U106G G110U	-5.96
C28U A43U C89G	-5.07
A27C G39A C62A C124G	-4.04
U32G A50G G69U C88G A121C	-3.17
G57U C89U	-0.78
C49A C56U C123A	0.705
C53A G63C	-2.92
C3A C72A C88G U92G G127U	-2.7
G110C G122C	-5.25
C22A G61U C115U G128C U131A U134C	-5.61
G69A U87C	-2.12
C40G G42A U59A A95G C123G	-2.1
C12U C56U G60U	-4.18
C8A C12A U78G	-0.297
G10A A50G C64U C115G	-3.37
G42A A100C U112G	-4.73
G44U C62G G117A	-4.71
